Experimental data published in paper PMC6735628.

Legend:
[1] = target: native LIC11711 (L. interrogans serovar Copenhageni (endogenous in strain M20)); assay: western blot of cell extracts; L. interrogans M20 cells treated with proteinase K for 0, 1 and 3 h, extracts blotted and probed with antiserum against rLIC11711
[2] = target: vitronectin (human); assay: ELISA; vitronectin (250 ng/well) coated, 5 uM recombinant protein plus increasing heparin, 2 h at 37 C; HRP anti-His MAbs
[3] = target: plasminogen (human); assay: ELISA; time course: 1 ug PLG coated, 1 ug recombinant protein for 5, 15, 30, 60 and 120 min; anti-His MAbs; percent of the 120 min value
[4] = target: E-cadherin (UniProt P12830); assay: ELISA; dose-response: 1 ug host component or BSA coated, increasing recombinant protein (0-20 uM); HRP anti-His MAb; KD by non-linear regression in GraphPad Prism 6
[5] = target: recombinant protein LIC11711 (L. interrogans serovar Copenhageni (strain M20 genomic DNA)); assay: non-reducing SDS-PAGE with western blot; purified recombinant proteins, non-reducing against reducing treatment (beta-mercaptoethanol and heating at 96 C); probed with anti-His MAbs or polyclonal antisera
[6] = target: complement component C7 (human) (UniProt P10643); assay: ELISA; dose-response: 1 ug host component or BSA coated, increasing recombinant protein (0-20 uM); HRP anti-His MAb; KD by non-linear regression in GraphPad Prism 6
UniProt P10643, sequence (P10643 23-843): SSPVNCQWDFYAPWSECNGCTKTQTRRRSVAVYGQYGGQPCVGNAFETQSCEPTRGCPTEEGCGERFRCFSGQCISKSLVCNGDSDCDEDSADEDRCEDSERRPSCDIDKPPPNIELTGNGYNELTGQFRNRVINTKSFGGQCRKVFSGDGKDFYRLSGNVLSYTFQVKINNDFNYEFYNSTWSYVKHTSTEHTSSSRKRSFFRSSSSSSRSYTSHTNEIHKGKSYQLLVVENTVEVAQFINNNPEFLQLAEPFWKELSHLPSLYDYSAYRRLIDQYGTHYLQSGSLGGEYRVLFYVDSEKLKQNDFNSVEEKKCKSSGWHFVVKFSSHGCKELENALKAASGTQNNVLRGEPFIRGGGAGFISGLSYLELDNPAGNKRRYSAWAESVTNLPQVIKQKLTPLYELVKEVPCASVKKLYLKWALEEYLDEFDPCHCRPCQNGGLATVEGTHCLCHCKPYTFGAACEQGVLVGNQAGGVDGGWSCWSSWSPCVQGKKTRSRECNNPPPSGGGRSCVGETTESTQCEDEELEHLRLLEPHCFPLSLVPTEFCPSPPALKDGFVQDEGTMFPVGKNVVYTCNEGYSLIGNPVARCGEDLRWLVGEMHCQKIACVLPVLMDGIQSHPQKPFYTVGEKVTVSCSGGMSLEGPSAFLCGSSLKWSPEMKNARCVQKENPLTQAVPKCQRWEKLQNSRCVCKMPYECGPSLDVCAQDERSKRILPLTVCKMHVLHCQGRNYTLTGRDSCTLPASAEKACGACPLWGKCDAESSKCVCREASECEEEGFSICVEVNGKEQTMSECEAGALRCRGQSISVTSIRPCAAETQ

[7] = target: complement component C8 (human) (UniProt P07357); assay: as above
UniProt P07357, sequence (P07357 31-584, chain 1 of 3): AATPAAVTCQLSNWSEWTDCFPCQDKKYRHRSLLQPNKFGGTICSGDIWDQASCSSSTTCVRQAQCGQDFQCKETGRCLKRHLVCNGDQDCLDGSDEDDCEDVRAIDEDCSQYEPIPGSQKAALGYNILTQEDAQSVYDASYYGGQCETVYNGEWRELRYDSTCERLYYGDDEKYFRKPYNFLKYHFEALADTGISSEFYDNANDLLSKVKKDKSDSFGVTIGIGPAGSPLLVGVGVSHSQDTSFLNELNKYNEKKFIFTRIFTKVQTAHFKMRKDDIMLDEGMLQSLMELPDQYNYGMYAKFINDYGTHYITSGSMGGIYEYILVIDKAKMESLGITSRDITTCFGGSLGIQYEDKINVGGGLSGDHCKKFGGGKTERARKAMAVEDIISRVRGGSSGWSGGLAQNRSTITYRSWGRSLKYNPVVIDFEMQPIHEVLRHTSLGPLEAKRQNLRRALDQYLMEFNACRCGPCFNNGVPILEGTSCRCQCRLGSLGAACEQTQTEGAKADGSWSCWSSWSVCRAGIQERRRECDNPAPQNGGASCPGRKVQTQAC
UniProt P07357, sequence (P07358 55-591, chain 2 of 3, further chain): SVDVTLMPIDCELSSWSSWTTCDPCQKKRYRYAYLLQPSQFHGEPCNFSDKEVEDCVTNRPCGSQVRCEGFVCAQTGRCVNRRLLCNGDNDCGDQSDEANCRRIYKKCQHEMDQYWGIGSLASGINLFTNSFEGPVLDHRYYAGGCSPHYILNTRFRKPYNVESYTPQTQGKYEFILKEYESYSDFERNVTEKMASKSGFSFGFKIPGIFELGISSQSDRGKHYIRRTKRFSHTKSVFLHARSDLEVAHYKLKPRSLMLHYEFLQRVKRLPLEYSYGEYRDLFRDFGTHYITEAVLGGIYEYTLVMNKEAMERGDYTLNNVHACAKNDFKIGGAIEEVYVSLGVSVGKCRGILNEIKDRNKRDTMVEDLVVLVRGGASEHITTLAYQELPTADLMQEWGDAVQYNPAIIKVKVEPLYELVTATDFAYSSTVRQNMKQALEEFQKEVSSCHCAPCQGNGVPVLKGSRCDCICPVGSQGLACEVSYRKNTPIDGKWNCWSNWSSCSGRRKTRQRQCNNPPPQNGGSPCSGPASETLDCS
UniProt P07357, sequence (P07360 21-202, chain 3 of 3, further chain): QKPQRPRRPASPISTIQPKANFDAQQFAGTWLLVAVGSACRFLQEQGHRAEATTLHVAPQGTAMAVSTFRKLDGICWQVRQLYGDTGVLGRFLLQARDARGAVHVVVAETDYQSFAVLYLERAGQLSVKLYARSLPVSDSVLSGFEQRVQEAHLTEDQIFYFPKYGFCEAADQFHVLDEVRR

[8] = target: complement component C9 (human) (UniProt P02748); assay: as above
UniProt P02748, sequence (P02748 22-559): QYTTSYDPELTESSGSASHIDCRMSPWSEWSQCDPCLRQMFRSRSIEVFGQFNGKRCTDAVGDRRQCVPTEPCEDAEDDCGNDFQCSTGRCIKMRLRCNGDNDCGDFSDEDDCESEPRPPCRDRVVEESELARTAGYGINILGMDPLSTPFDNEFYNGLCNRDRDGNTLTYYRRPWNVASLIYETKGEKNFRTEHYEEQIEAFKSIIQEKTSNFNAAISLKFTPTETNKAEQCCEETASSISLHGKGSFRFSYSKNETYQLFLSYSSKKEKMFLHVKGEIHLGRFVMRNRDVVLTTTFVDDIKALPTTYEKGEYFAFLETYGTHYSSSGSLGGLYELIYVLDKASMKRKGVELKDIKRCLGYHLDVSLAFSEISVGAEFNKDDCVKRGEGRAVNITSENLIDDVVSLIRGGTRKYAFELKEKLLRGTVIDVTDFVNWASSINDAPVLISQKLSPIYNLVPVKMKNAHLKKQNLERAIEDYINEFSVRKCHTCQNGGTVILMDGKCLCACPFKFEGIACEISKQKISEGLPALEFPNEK

Row | Substance | stoichiometry N [1] | percent reduction of binding with 10 ug/well heparin [2] [%] | percent reduction of binding with 100 ug/well heparin [2] [%] | percent of the maximal binding (2 h) reached at 5 min [3] [%] | Kd [4] [nM] | stoichiometry N [5] | Kd [6] [nM] | Kd [7] [nM] | Kd [8] [nM]
1 | native LIC11711 (natural protein) | 2 |  |  |  |  |  |  |  | 
2 | recombinant protein LIC11711 (natural protein) |  | 40 | 54 | 40 | 3820 | 2 |  |  | 
3 | recombinant protein LIC12587 (natural protein) |  | 10 | 51 |  |  |  | 1950 | 470 | 630
